Key:
scMad1^E–scMad2 complex [1] = experiment: in vitro pull-down of scMad1^E–scMad2 by GST-scBub1 fragments; type: binding, Saccharomyces cerevisiae; details: scBub1 fragments alone or co-expressed with scMps1 kinase domain
Procedure: Expression of GST-BubR1^N (residues 1–370), GST-Mad2, GST-scBub1 fragments, GST-Mad1, and GST-scMad1 fragments in BL21(DE3) was induced by 0.1 mM isopropyl β-D-1-thiogalactopyranoside (IPTG) at 16°C overnight, after the OD600 reached 0.8. Mad1 and scMad1 fragments (Mad1^E) containing the Mad2-interacting motif (MIM) were co-expressed with Mad2 and scMad2, respectively. Fragments of scBub1 were co-expressed with His6-scMps1 (the kinase domain; residues 440–720). […] After sonication, lysates were cleared by centrifugation at 4°C. Supernatants were filtered by 0.45 µm filter and incubated with pre-equilibrated Glutathione Sepharose 4B beads (GE Healthcare). Protein-bound beads were washed with 40 volumes of the wash buffer I. The proteins were then eluted with reduced glutathione (Sigma) or cleaved with the PreScission protease. Eluates were dialyzed to the QA buffer (25 mM Tris-HCl, pH 8.0, 20 mM NaCl, 3 mM DTT), loaded onto a Resource Q column (GE Healthcare), and then eluted with the QB buffer (25 mM Tris-HCl, pH 8.0, 1 M NaCl, 3 mM DTT). Peak fractions were pooled and further purified with a Superdex 200 size exclusion column (GE Healthcare). […]
Recombinant bait proteins or bacteria lysates containing bait proteins were incubated with the appropriate affinity beads. […] The bead-bound proteins were analyzed by Coomassie blue staining or Western blotting. […]

[2] = target: T1, C-terminal domain (CTD) of scMad1 (Saccharomyces cerevisiae, UniProt P40957); experiment: ITC, scBub1 fragment or phospho-peptides with scMad1 CTD; type: binding; details: 20°C, 25 mM HEPES pH 7.5, 150 mM NaCl, scMad1 20 µM in cell, scBub1 phospho-peptide or fragment 300 µM injected, read-out: Kd, dissociation constant
T1 sequence (P40957 633-749 limits assumed): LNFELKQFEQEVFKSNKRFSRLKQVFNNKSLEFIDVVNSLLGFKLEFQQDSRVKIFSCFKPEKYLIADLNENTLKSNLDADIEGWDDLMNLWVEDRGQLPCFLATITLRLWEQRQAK
Procedure: (§1) All isothermal titration calorimetry (ITC) assays were performed with a MicroCal Omega ITC200 titration calorimeter (GE Life Sciences) at 20°C. Recombinant scMad1^CTD protein or scMad1–scMad2 complexes were dialyzed into the HEPES Buffer I (25 mM HEPES, pH 7.5, 150 mM NaCl). Recombinant human Mad1^CTD protein was dialyzed into the HEPES Buffer II (25 mM HEPES, pH 7.5, 50 mM NaCl). For each titration, 300 μl of scMad1 proteins (20 µM) or human Mad1 (50 µM) were added to the calorimeter cell. The scBub1 phospho-peptides or purified scMps1-phosphorylated scBub1_449–530 fragment (300 µM) in the HEPES Buffer I or the human Bub1 phospho-peptides (500 µM) in the HEPES Buffer II were injected with an injection syringe in 19 2-μl portions. The raw data were processed and fitted with the NITPIC software package ([Keller et al., 2012]).

scMad1^E–scMad2 complex [3] = experiment: ITC, Mps1-phosphorylated scBub1 fragment with scMad1^E–scMad2 complex; type: binding, Saccharomyces cerevisiae; details: 20°C, 25 mM HEPES pH 7.5, 150 mM NaCl, scMad1 proteins 20 µM in cell, scBub1 fragment 300 µM injected, read-out: Kd, dissociation constant (affinity)
Procedure: as §1

Molecule	binding to scMad1^E–scMad2 (in words) (scMad1^E–scMad2 complex [1])	Kd [2] [nM]	Kd (scMad1^E–scMad2 complex [3]) [nM]
scBub1_369–608: scBub1 fragment co-expressed with the kinase domain of scMps1 in bacteria (protein, left off: GST, N-terminal, kept, scBub1 fragment co-expressed with the kinase domain of scMps1 in bacteria) RKLDVLVERRQDLPSSQPPVVPKSTRIEVFKDDDNPSQSTHHKNTQVQVQTTTSILPLKPVVDGNLAHETPVKPSLTSNASRSPTVTAFSKDAINEVFSMFNQHYSTPGALLDGDDTTTSKFNVFENFTQEFTAKNIEDLTEVKDPKQETVSQQTTSTNETNDRYERLSNSSTRPEKADYMTPIKETTETDVVPIIQTPKEQIRTEDKKSGDNTETQTQLTSTTIQSSPFLTQPEPQAEK	only the phosphorylated scBub1 bound to the scMad1^E–scMad2 complex	–	–
Phosphorylated scBub1449–530: Mps1-phosphorylated scBub1 fragment containing the CM (protein, phosphothreonine at 453, phosphothreonine at 455, phosphoserine at 458 (mass spectrometry; co-expressed with scMps1); left off: GST, N-terminal, state not stated, Mps1-phosphorylated scBub1 fragment containing the CM) SRSPTVTAFSKDAINEVFSMFNQHYSTPGALLDGDDTTTSKFNVFENFTQEFTAKNIEDLTEVKDPKQETVSQQTTSTNETN	–	2930	2210

— paper PMC5268738, “A sequential multi-target Mps1 phosphorylation cascade promotes spindle checkpoint signaling” (eLife, 2017)
